Assay: AHAS catalytic activity, pyruvate dependence
Type: biochemical, Parietochloris incisa
Protocol: To overexpress the hexahistidine (6xHis)-tagged PiAHAS genes in E. coli strain JM109, plasmids pQE-WT and pQE-MUT were used. These plasmids were constructed by inserting the BamHI-SalI fragment containing the cloned PiAHAS wt and mutant genes into plasmid pQE30 (Qiagen, Hilden, Germany). These plasmids express PiAHAS fused at its N-terminus to the pQE30 6xHis leader. pQE-WT and pQE-MUT were transformed into E. coli for expression. The transformed cells were grown, IPTG induced, and harvested as described previously (Hill C et al. Purification of Escherichia coli acetohydroxyacid synthase isoenzyme II and reconstitution of active enzyme from its individual pure subunits. Biochem. J. 1997, 327, 891-898). Bacterial cells were disrupted by sonication in a binding buffer with 20 mM imidazol, 0.5 M sodium chloride, 50 mM sodium dihydrogen phosphate (pH 8.0), 20 μM FAD and 50 μl/g cells of protease inhibitor cocktail (Sigma-Aldrich, Israel). After 30 min of centrifugation at 20,000×g, the supernatant was loaded on a 1.5×8 cm column of Ni2+-nitrilotriacetatic acid-agarose (Qiagen) previously washed with the binding buffer. The column was then washed with 80 ml of the binding buffer, and the His-AHAS protein eluted with 0.4 M imidazol in the binding buffer. The fractions were dialyzed against 50 mM potassium phosphate buffer (pH 7.6), containing 20 μM FAD. The protein was concentrated for storage at −20 °C by dialysis against same buffer, containing 50% glycerol. The AHAS catalytic activity was determined as previously described (Bar-Ilan A et al. Binding and activation of thiamin diphosphate in acetohydroxyacid synthase. Biochemistry (N.Y.) 2001, 40, 11946-11954). The reactions were carried for 20 min at 37 °C in 0.1 M potassium phosphate buffer (pH 7.6), containing 10 mM magnesium chloride, 0.1 mM ThDP, 75 μM FAD, 5 mM EDTA, 1 mM DTT with 100 mM pyruvate as substrate, except where otherwise indicated. The activity is expressed in units (U) (1 U=1 μmol of acetolactate formed min^−1). Km for pyruvate and Ki for SMM were determined by varying the concentration of the factor in question. Protein concentration was determined by the dye-binding method of Bradford (Bradford MM. A rapid and sensitive method for the quantitation of microgram quantities of protein utilizing the principle of protein-dye binding. Anal. Biochem. 1976, 72, 248-254), with bovine serum albumin as standard. Km calculations were fit with the program “Sigma-Plot” to Michaelis-Menten equation. For Ki calculations, the lines were fit to equations: V=Vo×Ki/(Ki+[SMM]), for wild-type; V=Vf+(Vo−Vf)×Ki/(Ki+[SMM]), for mutant.
Enzymatic activity of the wild type and mutant forms of AHAS in the presence of different Pyruvate substrate concentrations was assayed with 6.9 μg/ml of PiAHAS wild-type protein and 11.5 μg/ml of mutant protein (FIG. 5) and the specific activity and Km were calculated.

| Molecule | Km (37° C., pH 7.6) | Specific activity (37° C., pH 7.6) | Specific activity (purified protein) | decrease in affinity to the Pyruvate substrate compared to wild type (mutant versus wild type) | decrease in specific / enzymatic activity compared to wild type (mutant versus wild type) |
| --- | --- | --- | --- | --- | --- |
| Wild-type: Parietochloris incisa acetohydroxyacid synthase (AHAS), SEQ ID NO: 1, expressed as N-terminal hexahistidine-tagged protein (protein, listed as Parietochloris incisa, N-terminal hexahistidine tag) MQGTMRPTAGALQQTVGCWHVPAGIPHAQQALRGRILPEELKQRCSATKPRAARQSAVTAAKLAEGKAGTPSRSLRQQPAAPQQQQQQQDSNELVALREAAKASLSSPAPAEWVDRFGSEPRKGADILVQCLEREGAFRVFAYPGGASMEIHQALTRSGIIRNILCRHEQGEIFAAEGYAKCTGDVGVCIATSGPGATNLVTGLADAMLDSVPLVAITGQVPRKMIGTDGFQETPIVEVTRQITKHNFLVMDLDDLPRIMKEAFYLARTGRPGPVLVDVPKDIQQQLAVPDWDTPMAISGYMSRLPAPPNPSQLAAVVRALKEAKRPTLYVGGGALDSSAELREFVRLTGIPVAQTLMGLGTFPEEDPLALQMLGMHGTVYANYAVNDSDLLLAFGVRFDDRVTGKLEAFASRACIVHIDIDPAEICKNKEAHIPICADLRASLIALNELLRRDPLPEGAFADWRAAIEAKKQEFPMTFPERDDVIIPQRAIQMLYEETNGEAIISTGVGQHQMWAAQWYQYNEPRRWVTSGGLGSMGFGLPSALGAAAVAYDGTDGRPKKVVVDIDGDGSFLMNCQELATAAVEGLETKIMILNNQHLGMVVQWEDRFYKANRAHTYLGHRANEYHTTLDESHIFPDFVMMAKSCGVPGRRVIKPEELRGAIREMLDTPGPFLLDVMVPHVEHVLPMIPGGGSFKDIITKGDGRDEY | 49.4 ± 2.1 mM | 3.00 ± 0.05 U × mg^−1 | 3 U/mg | – | – |
| Mutant: Parietochloris incisa AHAS with Trp605 substituted by Serine (W605S), SEQ ID NO: 2, hexahistidine-tagged (protein, listed as Parietochloris incisa, hexahistidine tag) MQGTMRPTAGALQQTVGCWHVPAGIPHAQQALRGRILPEELKQRCSATKPRAARQSAVTAAKLAEGKAGTPSRSLRQQPAAPQQQQQQQDSNELVALREAAKASLSSPAPAEWVDRFGSEPRKGADILVQCLEREGAFRVFAYPGGASMEIHQALTRSGIIRNILCRHEQGEIFAAEGYAKCTGDVGVCIATSGPGATNLVTGLADAMLDSVPLVAITGQVPRKMIGTDGFQETPIVEVTRQITKHNFLVMDLDDLPRIMKEAFYLARTGRPGPVLVDVPKDIQQQLAVPDWDTPMAISGYMSRLPAPPNPSQLAAVVRALKEAKRPTLYVGGGALDSSAELREFVRLTGIPVAQTLMGLGTFPEEDPLALQMLGMHGTVYANYAVNDSDLLLAFGVRFDDRVTGKLEAFASRACIVHIDIDPAEICKNKEAHIPICADLRASLIALNELLRRDPLPEGAFADWRAAIEAKKQEFPMTFPERDDVIIPQRAIQMLYEETNGEAIISTGVGQHQMWAAQWYQYNEPRRWVTSGGLGSMGFGLPSALGAAAVAYDGTDGRPKKVVVDIDGDGSFLMNCQELATAAVEGLETKIMILNNQHLGMVVQSEDRFYKANRAHTYLGHRANEYHTTLDESHIFPDFVMMAKSCGVPGRRVIKPEELRGAIREMLDTPGPFLLDVMVPHVEHVLPMIPGGGSFKDIITKGDGRDEY | 71.7 ± 2.9 mM | 1.46 ± 0.03 U × mg^−1 | – | 2 fold | 2 fold |

Source: US9267129B2, “Compositions and methods for conferring herbicide resistance” (BEN-GURION UNIVERSITY OF THE NEGEV RESEARCH AND DEVELOPMENT …, priority 2011, dated 2016)
